The data set is described as follows: protein stability index of a GFP-peptide fusion (GPS, HEK-293T) (PSI 1-6); higher = more stable.
Setting [1] is: treatment: DMSO, c terminus: a fixed tail appended.
Where [2] appears, read: treatment: MLN4924 1 uM, 8 h, c terminus: a fixed tail appended.
Setting [3] is: treatment: DMSO, c terminus: native.
[4] abbreviates: treatment: MLN4924 1 uM, 8 h, c terminus: native.

± gives the standard deviation.
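Note: 24-mer peptide tiles fused after GFP, lentivirally expressed, FACS-sorted into six equal bins by GFP/DsRed ratio, decoded by Illumina sequencing, PSI is the read-weighted mean bin number.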

In the case of KICESLNVPVDDSLVKELLRMCSH [EFHC1], the protein stability index is, setting by setting: under setting [1], 2.11 ± 0.21; under setting [2], 2.09 ± 0.44.

For the sequence LLRMCSHGEGKINYYNFVRAFSN [EFHC1], the protein stability index worked out at 2.32 ± 0.66 under setting [3] and 2.08 ± 0.57 under setting [4].

Take LSVRSVFFGVFQSFVVLLYILDNE [CLPTM1]: the protein stability index stood at 3.19 ± 0.75 under setting [1] and 2.92 ± 0.55 under setting [2].

On to RSPRAGAGALLRLPSERLDFSMAE [PRPH], for which the protein stability index is, setting by setting: under setting [1], 4.17 ± 0.17; under setting [2], 4.21 ± 0.29.

For IASEPTNKHLFYAEDFSTMDEISE [MATN2], the protein stability index reads like this: under setting [1], 4.57 ± 0.27; under setting [2], 4.59 ± 0.23.

With AFEPEALGNLVEGMDFHRFYFENA [CAMK2D], the protein stability index was 2.86 ± 0.44 under setting [1] and 2.78 ± 0.54 under setting [2].

Turning to DEASAATPPSSRRVWSPPRVHKVE [ZBTB22], the protein stability index was found to be 5 ± 0.073 under setting [1] and 4.99 ± 0.15 under setting [2].

Take TGEDSAFQEPDSPLPPARSPTEPG [WEE1]: the protein stability index reads like this: under setting [1], 5.62 ± 0.15; under setting [2], 5.44 ± 0.34.

Turning to APAPAPEEWLDILGNGLLRKKTLV [FKBP8], the protein stability index is, setting by setting: under setting [1], 3.19 ± 0.32; under setting [2], 3.24 ± 0.27.

As to ARLAADDFRVKYETELAMRQSVEN [KRT18], the protein stability index is, setting by setting: under setting [1], 4.39 ± 0.19; under setting [2], 4.44 ± 0.21.

Take HTDSKYEHAIAEAQKNMYFKTRLK [ZNF396]: the protein stability index reads like this: under setting [1], 3.8 ± 0.22; under setting [2], 3.5 ± 0.32.

Regarding GLQAQILHCYRDRPHEVLLCSDLV [CHCHD6], the protein stability index reads like this: under setting [1], 2.39 ± 0.39; under setting [2], 2.16 ± 0.33.

With DWEAVPQRKLKPPIVPKIAGDGDT [PRKX], the protein stability index is, setting by setting: under setting [1], 4.9 ± 0.21; under setting [2], 4.87 ± 0.24.

As for DAHFCAVCSDYASGYHYGVWSCEG [ESR2], the protein stability index reads like this: under setting [1], 2.2 ± 0.45; under setting [2], 2.49 ± 0.42.

Under setting [2], QDIDLGAGREVFDYSHRQKEQDVE [NFE2L1] registered a protein stability index of 5.05 ± 0.84.

For the sequence ALSLLELLGFNLTFVFLASLLVLI [CLCN6], the protein stability index is, setting by setting: under setting [1], 3.23 ± 0.93; under setting [2], 2.69 ± 0.97.

Take SVEYGYRPGATAVPTPLTNVQILL [FCHO1]: the protein stability index is, setting by setting: under setting [1], 2.06 ± 0.62; under setting [2], 2.03 ± 0.48.

Regarding KIMGVEEEDDDDDDDDNLPQLKKE [ANKRD40], the protein stability index by setting is: under setting [1], 5.6 ± 0.24; under setting [2], 5.46 ± 0.19.

Consider RLLLDSGAQVNMPADSFESPLTLA [ANKRD17], for which the protein stability index runs as follows: under setting [1], 3.44 ± 0.23; under setting [2], 3.46 ± 0.41.

Take EPPCEGNTFFCHSNMCINNTLVCN [NETO1]: the protein stability index was found to be 2.9 ± 0.24 under setting [1] and 2.85 ± 0.35 under setting [2].

In the case of VPARDGTSCKLTDLRGVCVSGKCE [ADAMTSL2], the protein stability index turned out to be 3.95 ± 0.23 under setting [1] and 3.92 ± 0.29 under setting [2].

For the sequence DATLSLKQTILDKEEKQRRNVAKN [TTC32], the protein stability index by setting is: under setting [1], 4.99 ± 0.28; under setting [2], 4.91 ± 0.19.

GIAIVSVLVILISIVIFCLETLPE [KCNA3] yielded a protein stability index under setting [1] of 2.21 ± 0.26 and a protein stability index under setting [2] of 2.36 ± 0.46.

Take KLSCLFAGPHSTLTPPCSPPEDGL [SNX8]: the protein stability index worked out at 3.25 ± 0.18 under setting [1] and 3.19 ± 0.4 under setting [2].

On to LPHLVALTEQYTVTGLMEATQMMV [RHOBTB2], for which the protein stability index runs as follows: under setting [1], 2.89 ± 0.67; under setting [2], 2.86 ± 0.52.

PSCRHEVVLDRHGVYGLQRNLLVE [TRIM55]: the protein stability index is, setting by setting: under setting [1], 2.32 ± 0.36; under setting [2], 2.3 ± 0.47.

For the sequence CAQMLPPNLSPHAPWNYHYHCPGS [TRAF3IP2], the protein stability index runs as follows: under setting [1], 2.56 ± 0.49; under setting [2], 2.28 ± 0.29.

As for HGTKNVTNSSSLRLPRQNSDGGQK [WSB1], the protein stability index is, setting by setting: under setting [1], 4.96 ± 0.2; under setting [2], 4.87 ± 0.47.

YLLDYPNNLLSAPPPDVTQLTPPS [ANKRD17]: the protein stability index was 3.23 ± 0.14 under setting [1] and 3.44 ± 0.2 under setting [2].

As to SSCHFARDSSFLISGGFDRTVAIW [WDR88], the protein stability index by setting is: under setting [1], 2.42 ± 0.45; under setting [2], 2.51 ± 0.55.

As for DLSMDGLFGTIAYLPPERIREKSR [RIPK4], the protein stability index is, setting by setting: under setting [1], 3.58 ± 0.27; under setting [2], 3.66 ± 0.34.

As to DQFSALGLDPCLLEDELDKSVQGT [SLC6A17], the protein stability index is, setting by setting: under setting [1], 5.18 ± 0.14; under setting [2], 5.19 ± 0.14.

Consider TWMLEVCEEQKCEEEVFPLAMNYL [CCND2], for which the protein stability index is 2.84 ± 0.23 under setting [1] and 2.89 ± 0.3 under setting [2].

On to LVVMAPSPSESSETVLALVNCISP [DENND6A], for which the protein stability index reads like this: under setting [1], 2.4 ± 0.32; under setting [2], 2.15 ± 0.19.

For RIVHLQETCDLGKIKPEARRYLEK [NLN], the protein stability index is, setting by setting: under setting [1], 3.25 ± 0.51; under setting [2], 3.66 ± 0.67.

Take PLMQGPRTRPRKPIRCGEVLFAVG [KLHL20]: the protein stability index under setting [1] was determined as 2.23 ± 0.33 and the protein stability index under setting [2] was 1.92 ± 0.5.

For ELERIGPQHQAGSDSLLTGMAFFK [CNOT7], the protein stability index by setting is: under setting [1], 3.25 ± 0.34; under setting [2], 3.62 ± 0.11.

For HLEYRFYKQLGSAGEGLPQVYYFG [CSNK1G1], the protein stability index reads like this: under setting [1], 2.2 ± 0.47; under setting [2], 2.15 ± 0.68.

With NSTGGDCFYRGYTSGVAAVQDWYH [SCNN1D], the protein stability index was 2.36 ± 0.16 under setting [1] and 2.43 ± 0.5 under setting [2].

In the case of LPMATVDIKNPEITTNRFYGPQVN [WASL], the protein stability index stood at 3.4 ± 0.75 under setting [1] and 3.54 ± 0.34 under setting [2].

For KEDQFGRTPLMYCVLADRLDCADA [INVS], the protein stability index worked out at 3.12 ± 0.41 under setting [1] and 3.26 ± 0.3 under setting [2].

For the sequence KSNQPKSLEDLIFESLPENASHKL [ATE1], the protein stability index reads like this: under setting [1], 4.28 ± 0.21; under setting [2], 4.5 ± 0.14.

Consider YSKPGLSMRLLESKKGLSFFAFEH [TCF25], for which the protein stability index is 2.12 ± 0.33 under setting [1] and 2.08 ± 0.38 under setting [2].

As to LGMYQKVTSYCRSATLVGFTVGSV [SLC19A2], the protein stability index runs as follows: under setting [1], 2.74 ± 0.6; under setting [2], 2.73 ± 0.41.

For the sequence ASLHTLLGDPCPMLESPGAPCRSA [HDAC6], the protein stability index is 3.62 ± 0.23 under setting [1] and 3.83 ± 0.27 under setting [2].

For the sequence HGVLSAEGFLFVFGGQDENKQTLS [GAN], the protein stability index runs as follows: under setting [1], 2.43 ± 0.27; under setting [2], 2.65 ± 0.073.

For QLRKQKKKTGKSSTTALGDKQRKA [ELOA2], the protein stability index is 4.73 ± 0.51 under setting [1] and 4.82 ± 0.39 under setting [2].

With MMMMGPKEEEQSCEYETRLPGNHS [ZNF232], the protein stability index is, setting by setting: under setting [1], 4.51 ± 0.48; under setting [2], 4.64 ± 0.4.

As for IDEQDSYIQSRADTMQNIESTIVE [STX5], the protein stability index came to 5.23 ± 0.31 under setting [1] and 5.14 ± 0.12 under setting [2].

Consider PCAGLNCQALDANLDANLAFASFT [TLE6], for which the protein stability index was found to be 2.98 ± 0.33 under setting [1] and 2.99 ± 0.28 under setting [2].

Turning to NYMKILLKVGGILVMPIEDQLTQI [PCMTD1], the protein stability index is, setting by setting: under setting [1], 3.08 ± 0.75; under setting [2], 2.88 ± 0.8.

KDPSAIGKKQVPCFASMLTKKLHF [CASP6] yielded a protein stability index under setting [1] of 2.23 ± 0.14 and a protein stability index under setting [2] of 2.36 ± 0.16.

Sequence TVFCLVVIFALCWFPLHLSRILKK [EDNRA] yielded a protein stability index under setting [1] of 2.41 ± 0.61 and a protein stability index under setting [2] of 2.42 ± 1.3.

TVEKDESHAGKVVLRSWYEKNKHI [FAM50A] came in with a protein stability index under setting [1] of 3.74 ± 0.33 and a protein stability index under setting [2] of 3.87 ± 0.18.

The sequence IPAAVLAGFTGSGPIQLWQFLLEL [ETS2] gave a protein stability index under setting [1] of 2.69 ± 0.62 and a protein stability index under setting [2] of 2.5 ± 0.25.

Take PPPPMQPTVPSAATSQPTPSQHSA [CCDC6]: the protein stability index under setting [1] was 5.23 ± 0.12 and the protein stability index under setting [2] was determined as 5.47 ± 0.18.

Take SFQPECSMKLTPLVLEVFGNEIS [VDR]: the protein stability index is 2.23 ± 0.33 under setting [3] and 2.41 ± 0.14 under setting [4].

As for LVDVRQEQLQGFNTRVRELAQAAG [DNAAF3], the protein stability index under setting [1] was found to be 3.67 ± 0.55 and the protein stability index under setting [2] is 3.67 ± 0.29.

Turning to DRLVVTECQLTHSHPACPLEFAYY [ZSWIM9], the protein stability index was found to be 2.53 ± 0.31 under setting [1] and 2.53 ± 0.32 under setting [2].

In turn, SGRRNWCSYVVTRTISCHVQNGTY [EMID1] came in with a protein stability index under setting [1] of 2.12 ± 0.41 and a protein stability index under setting [2] of 1.93 ± 0.37.

On to GGSELGGWSLGRWTHDGIDINNNF [CPXM2], for which the protein stability index under setting [1] worked out at 3.06 ± 0.031 and the protein stability index under setting [2] worked out at 2.64 ± 0.054.

As for YFGSFATVGLLWFAHHSLFLHVRK [TMEM175], the protein stability index is, setting by setting: under setting [1], 3.17 ± 0.56; under setting [2], 3.15 ± 0.42.

GDASECPQATNAKDSGCSSPGAH [PPEF2]: the protein stability index worked out at 5.78 ± 0.1 under setting [3] and 5.57 ± 0.12 under setting [4].

Regarding GLERRDWSPSPPATPEQGLSAFYL [SPDEF], the protein stability index reads like this: under setting [1], 3.03 ± 0.25; under setting [2], 2.84 ± 0.15.

Turning to STYRPLPDPSVWSRRYTEMALPFF [MYORG], the protein stability index turned out to be 2.36 ± 0.4 under setting [1] and 2.22 ± 0.13 under setting [2].

Take EVILLVVMAYDRYMAICKPLHELI [OR4A15]: the protein stability index reads like this: under setting [1], 3.26 ± 0.43; under setting [2], 2.97 ± 0.44.

The sequence RTCTAPLDRLKVLMQVHASRSNNM [SLC25A25] yielded a protein stability index under setting [1] of 2.68 ± 0.2 and a protein stability index under setting [2] of 2.81 ± 0.21.

SEKETMQFLNDRLASYLEKVRQLE [KRT33B]: the protein stability index under setting [1] is 2.55 ± 0.12 and the protein stability index under setting [2] was found to be 2.66 ± 0.28.

Take VFWPQLPNGLEAAYEFADRDEVRF [MMP1]: the protein stability index was 2.86 ± 0.26 under setting [1] and 3.1 ± 0.3 under setting [2].

On to EFRRWRDTGVAFELRDSSAYHVPN [DNAAF3], for which the protein stability index under setting [1] turned out to be 2.75 ± 0.24 and the protein stability index under setting [2] worked out at 3 ± 0.32.

Turning to DGPGGNLAHAFQPGPGIGGDAHFD [MMP1], the protein stability index stood at 4.95 ± 0.3 under setting [1] and 4.9 ± 0.14 under setting [2].

With CRTYIIHYYLMDDTVEIREVHERN [EFHC1], the protein stability index was 2.55 ± 0.38 under setting [1] and 2.39 ± 0.29 under setting [2].
